Experimental data taken from patent US20170189529A1 (CONTRAFECT, published 2017).
Like-named read-outs stand apart in the source and are kept apart here.

Legend:
[1] = biological target: T1, hemagglutinin (HA) of influenza B virus B/Florida (Yamagata lineage) (influenza B virus B/Florida/06 …); test: ForteBio Octet; antigen on the sensor, varying antibody concentrations
[2] = biological target: T2, hemagglutinin (HA) of influenza B virus B/Malaysia (Victoria lineage) (influenza B virus B/Malaysia/04 …); test: as above
[3] = biological target: recombinant HA of influenza B virus B/Brisbane/08 (Victoria clade) (influenza B virus B/Brisbane/08 …); test: recombinant HA ELISA (AttoPhos fluorescence, mean of triplicates)
[4] = biological target: recombinant HA of influenza B virus B/Mass/12 (Yamagata clade) (influenza B virus B/Mass/12 (Yamagata …)); test: as above
[5] = biological target: T1, hemagglutinin (HA) of influenza B virus …; test: as above
[6] = biological target: T2, hemagglutinin (HA) of influenza B virus …; test: as above
[7] = biological target: recombinant HA of influenza B virus B/Wisconsin/10 (Yamagata clade) (influenza B virus B/Wisconsin/10 …); test: as above
[8] = biological target: T1, hemagglutinin (HA) of influenza B virus …
[9] = biological target: hemagglutinin of influenza A virus A/mallard/MN/AI08-3881/08 (H2), on virus (influenza A virus H2 …); test: cell-based or functional assay
[10] = biological target: hemagglutinin of influenza A virus A/CA/04/09 (H1), on virus (influenza A virus H1 A/CA/04/09); test: cell-based or functional assay
[11] = biological target: hemagglutinin of influenza A virus A/Mallard/MN/182753/98 (H9), on virus (influenza A virus H9 …); test: cell-based or functional assay
[12] = biological target: H2 Japan/305/1957 HA monomer (influenza A virus H2 Japan/305/1957, UniProt P03451 16-525); test: kinetic binding to HA monomer (instrument not stated)

B1: TRL845 (antibody, V domains shown)
VH: QVQLVQSGGDLVQPGGSLRLSCAASGFTFSRYSMNWVRQAPGMGLEWVAYISDTSRTIYYADSVKGRFTISRDNAKNSLYLQMKSLRDEDTAVYYCARDPDTPFVRAFDSWGQGTLVTVSS
VL: DIVLTQSPSFLSASVGDRVTITCRASQLISSYFAWYQQKPGKPPKLLIYAASTLQSGVPSRFSGSGSGTQFSLTISSLQPEDFATYYCQQLNSYPPITFGQGTRLEIKR
[1]
  Kd: 5.2 nM
[2]
  Kd: < 1 nM
[3]
  fold reactivity over background: 25.6 fold over background
[4]
  fold reactivity over background: 25.6 fold over background
[5]
  fold reactivity over background: 25.6 fold over background
[6]
  fold reactivity over background: 25.6 fold over background
[7]
  fold reactivity over background: 25.6 fold over background
[8]
  Kd: 0.19 nM

B2: TRL809 (antibody, V domains shown)
VH: QVQLLESGGGVVRPGRSLRLACAGSGFTFSAYAMHWVRQAPGKGLEWVAHTSYDGRDSYYVDSVKGRFTISRDDSKNTLYLQMNSLRPEDTAVYYCAKVGPYTGYDDYNYYGMDVWGHGTTVTVSS
VL: DIVLTQSPVSLAVSLGESATVNCKSSQSVLSNSKNLNYLAWYQHKPGQPPKLLIYWASTRESGVPDRFSGSGSGTDFTLTISSLQAEDVAVYYCQQHYSIPLTFGPGTKVDIKR
[1]
  Kd: 0.18 nM
[2]
  Kd: 0.2 nM
[3]
  fold reactivity over background: 25.6 fold over background
[4]
  fold reactivity over background: 25.6 fold over background
[5]
  fold reactivity over background: 25.6 fold over background
[6]
  fold reactivity over background: 25.6 fold over background
[7]
  fold reactivity over background: 25.6 fold over background

B3: TRL832 (antibody, V domains shown)
VH: QVQLVESGPGLMKPSETLSLTCTVSGGSVSNYYWSWIRQPPGKGLEWIGYVFYSGSSNYNPSLNNPSLKSRVTISIDTSNNQFSLKLSSVTAADTAVYYCARGRVNSGYDWGPNFDSWGQGALVTVSS
VL: DIVLTQAPSVSVSPGQTASITCSGDRLGEKFASWYQQKPGQSPVLVIYEDSKRPSGIPDRFSGSNSGNTATLTISGTQIMDEGDFFCQAWDSSTVVFGGGTKLTVLG
[1]
  Kd: 1.7 nM
[2]
  Kd: 0.2 nM
[3]
  fold reactivity over background: 25.6 fold over background
[4]
  fold reactivity over background: 25.6 fold over background
[5]
  fold reactivity over background: 25.6 fold over background
[6]
  fold reactivity over background: 25.6 fold over background
[7]
  fold reactivity over background: 25.6 fold over background

B4: TRL856 (antibody, V domains shown)
VH: QVQLVESGGGLVQPGGSLRLSCAASGFTFSDYWMVWVRQAPGKGLVWVSRISSDGSTTSYADSVKGPFTISRDNAKNTLYLQMNSLRAEDTAVYYCARVATPYYYESGFDYWGQGALVTVSS
VL: DIVLTQSPSVSVAPGQTARITCGGNDIGSKSVHWYQQKPGQAPVLVVFDDRDRPSGIPERFSGSNSGNTATLTISRVEAGDEADYYCQVWDITSDLVVFGGGTKLTVVG
[3]
  fold reactivity over background: 24.1 fold over background
[4]
  fold reactivity over background: 25.6 fold over background
[5]
  fold reactivity over background: 25.6 fold over background
[6]
  fold reactivity over background: 25.6 fold over background
[7]
  fold reactivity over background: 25.6 fold over background

B5: TRL848 (antibody, V domains shown)
VH: QVQLLESGGDVVQPGTSLRLSCAASGFSLWTSGMHWVRQAPGKGLEWVAVMSYDETKKYYADSVRGRFSISRDNSRNTLYLQMNSLRVEDTAVYFCAKPRLDYLDYFHAADSWGQGTLVSVSS
VL: DIVLTQPPSVSVAPGQTATITCGGNYIGSKSVNWYQQRPGHAPVLVVYDDSDRPSGIPDRFSGSNSRSTATTATLTISRVEAGDEADYYCQVWETSEDLWVFGGGTKLTVLG
[1]
  Kd: 3.9 nM
[2]
  Kd: < 1 nM
[3]
  fold reactivity over background: 25.6 fold over background
[4]
  fold reactivity over background: 25.6 fold over background
[5]
  fold reactivity over background: 25.6 fold over background
[6]
  fold reactivity over background: 25.6 fold over background
[7]
  fold reactivity over background: 25.6 fold over background
[8]
  Kd: 1.7 nM

B6: TRL842 (antibody, V domains shown)
VH: QVQLLESGGDVVQPGTSLRLSCAASGFSLWTSGMHWVRQAPGKGLEWVAVMSYDETKKYYADSVRGRFSISRDNSRNTLYLQMNSLRVEDTAVYFCAKPRLDYLDYFHAADSWGQGTLVSVSS
VL: DIVLTQPPSVSVAPGQTATITCGGNYIGSKSVNWYQQRPGHAPVLVVYDDSDRPSGIPDRFSGSNSRSTATTATLTISRVEAGDEADYYCQVWETSEDLWVFGGGTKLTVLG
[1]
  Kd: 2.5 nM
[2]
  Kd: < 1 nM
[3]
  fold reactivity over background: 25.6 fold over background
[4]
  fold reactivity over background: 25.6 fold over background
[5]
  fold reactivity over background: 25.6 fold over background
[6]
  fold reactivity over background: 25.6 fold over background
[7]
  fold reactivity over background: 25.6 fold over background

B7: TRL053 (antibody, V domains shown)
VH: QVQLVQSGAEVRKPGSSVKVSCKVSGGIIRKYAINWVRQAPGQGLEWMGGIIAIFNTANYAQKFQGRVTITADESTSTVYMELSSLRSEDTALYYCARGMNYYSDYFDYWGQGSLVTVSP
VL: EIVLTQSPGTLSLSPGERATLSCRASQSVRSNNLAWYQHKPGQAPRLLIFGASSRATGIPDRFSGSGSGTDFTLTISRLEPEDFAVYYCQQYGSSPALTFGGGTKVEIKR
[9]
  IC50 (ug/ml), MDCK monolayer microneutralization assay: 0.3 µg/mL
[10]
  IC50 (ug/ml), MDCK monolayer microneutralization assay: 0.9 µg/mL
[11]
  IC50 (ug/ml), MDCK monolayer microneutralization assay: 0.1 µg/mL
[12]
  Kd: 12.3 nM
  koff: 6.8e-05 s⁻¹
  kon: 5500 M⁻¹ s⁻¹
[3]
  fold reactivity over background: 1 fold over background
[4]
  fold reactivity over background: 1 fold over background
[5]
  fold reactivity over background: 1.1 fold over background
[6]
  fold reactivity over background: 1.6 fold over background
[7]
  fold reactivity over background: 2.8 fold over background

B8: TRL812 (antibody, V domains shown)
VH: QVQLVQSGGGVVQPGRSLRLSCAASGFNFSSYGMHWVRQAPGKGLEWLSVIWSGGSNKYYADSVKGRFTISRDDSKNTVYLQMNSLRDEDTAVYYCARAHTALTRFRWLDPWGQGILVTVSS
VL: DIVMTQSPATLSVSPGEGATLSCRASQGIGSNLAWYQHKPGQAPRLLIYAASTRATGVPARFSGSGSGTEFTLTISSLQSEDLAVYFCQQYNTWPLTFGGGTKVEIIR
[3]
  fold reactivity over background: 25.6 fold over background
[4]
  fold reactivity over background: 25.6 fold over background
[5]
  fold reactivity over background: 25.6 fold over background
[6]
  fold reactivity over background: 25.6 fold over background
[7]
  fold reactivity over background: 25.6 fold over background

B9: TRL813 (antibody, V domains shown)
VH: QVQLVESGGGLVQPGGSLRLSCAASGFIFGDFAIHWVRQASGKGLEWVARIRSGLNRFETAYAASVEGRLTISRDDSKSMAYLQMNNVKAEDTAVYLCTYLVGAVGFQHWGQGTLVTVSS
VL: DIVMTQSPSTLSASVGDRVTITCRASQTIYRWLAWYQQKPGKAPKVLIYKASTLESGVPSRFSGSGSGTEFTLAISSLQPDDFATYYCQQYNSFPYRFGQGTKVEIKR
[3]
  fold reactivity over background: 25.6 fold over background
[4]
  fold reactivity over background: 25.6 fold over background
[5]
  fold reactivity over background: 25.6 fold over background
[6]
  fold reactivity over background: 25.6 fold over background
[7]
  fold reactivity over background: 25.6 fold over background

B10: TRL841 (antibody, V domains shown)
VH: QVQLVESGGGVVQPGRSLRLSCAASGFTFSSYGIYWVRQAPGKGLEWVAFISYDEINKFYADSVKGRFTISRDNSKNTVFLQMNSLRDEDTAVYYCAKPLRGSYRYFDLWGRGTVVTVSS
VL: DIVMTQPPATLSVSPGERATLSCGASQGLGSNLAWYQQKPGQAPRLLIYAASTRATGITARFSGSGSGTEFTLTINSLQSEDFALYYCQQYTYWPLTFGGGTKVEIKR
[3]
  fold reactivity over background: 25.6 fold over background
[4]
  fold reactivity over background: 25.6 fold over background
[5]
  fold reactivity over background: 25.6 fold over background
[6]
  fold reactivity over background: 25.6 fold over background
[7]
  fold reactivity over background: 25.6 fold over background

B11: TRL849 (antibody, V domains shown)
VH: QVQLVESGPGLVKPSQTLSLTCTVSGGSISNGGYHWSWIRQHPGKGLEWIGNIYYRGSTFYDPSLKSRVTISVDTSKSQFSLKLTSVTAADTAVYYCARMPLANYDLLTGLYIGAFDLWGQGTMVTVSS
VL: DIVLTQSPATLSVSPGERATLSCRASQSVNRNLAWFQQIPGQAPRLLIFDASTRAADIPARFSGGGSGAEFTLTVSSLQPEDFAVYYCQQYDKWPPGFGQGTKVEIKR
[1]
  Kd: 0.2 nM
[2]
  Kd: < 1 nM
[3]
  fold reactivity over background: 25.6 fold over background
[4]
  fold reactivity over background: 25.6 fold over background
[5]
  fold reactivity over background: 25.6 fold over background
[6]
  fold reactivity over background: 25.6 fold over background
[7]
  fold reactivity over background: 25.6 fold over background

B12: TRL847 (antibody, V domains shown)
VH: QVQLVESGGGLVQPGGSLRLSCVASGFTFSRFSMNWVRQAPGMGLEWVSYISDTGRTIYYADSVKGRFTISRDNDKNTLYLQMKSLRDEDSAFYYCARDPDTPFVRAFDSWGQGVLVTVSS
VL: DIVMTQSPSFLSASVGDRVTITCRTSQVISSYLAWYQQRPGKAPKLLIYAASTLQSGVPSRFSGSGSGTRFSLTISNLQPEDFATYFCQQLTTYPPITFGQGTRLEIKR
[1]
  Kd: 0.7 nM
[2]
  Kd: < 1 nM
[3]
  fold reactivity over background: 25.6 fold over background
[4]
  fold reactivity over background: 25.6 fold over background
[5]
  fold reactivity over background: 25.6 fold over background
[6]
  fold reactivity over background: 25.6 fold over background
[7]
  fold reactivity over background: 25.6 fold over background
